Test results: paper PMC11079029, “Intramolecular autoinhibition regulates the selectivity of PRPF40A tandem WW domains for proline-rich motifs” (Nature Communications, 2024)
“And” between values parts separate entries of the source, which are not always exact repeats. Identical values can stand only once.

Assays:
Conditions in all cases: both partners purified
[1] = target: T1, PRPF40A WW12 (tandem WW domains, residues 141-236) (human, UniProt O75400 141-236); assay: ITC; MicroCal PEAQ-ITC, 25 °C, 20 mM sodium phosphate pH 6.5, 100 mM NaCl; GB1-polyproline peptides in the cell, WW12 in the syringe (N sites >1: more than one WW tandem on one peptide); one-site model; apparent
T1 construct: pETM11 vector (NcoI/KpnI); also called PRPF40A WW tandem; isolated WW domains; source: E. coli BL21(DE3), purified (Ni-NTA, TEV cleavage, reverse Ni-NTA, SEC); not shown: His6, N-terminal, cleaved

[2] = target: T2, PRPF40A WW12 (tandem WW domains, residues 141-236) (human, UniProt O75400 141-236); assay: ITC; GB1-peptide or GB1-SF1 construct in the cell, PRPF40A WW12 in the syringe (as shown in Supplementary Figures 7 and 16A); 25 °C, 20 mM sodium phosphate pH 6.5, 100 mM NaCl; one-site binding model; at least duplicates; affinities apparent
T2 construct: A few vector residues probably remain at the N-terminus after TEV cleavage (pETM11, NcoI site); 15N-labelled in the NMR experiments; also called PRPF40A WW tandem; WW12 wt; source: E. coli BL21(DE3), purified (Ni-NTA, TEV digestion, reverse Ni-NTA, SEC); not shown: His6, N-terminal, cleaved

[3] = target: T1, PRPF40A WW12 (tandem WW domains, …); assay: ITC; MicroCal PEAQ-ITC, 25 °C, 20 mM sodium phosphate pH 6.5, 100 mM NaCl; GB1-tagged SF1/SF3A1 constructs in the syringe, WW12 in the cell (N sites <1: more than one WW tandem on one construct); one-site model; apparent
[4] = target: T2, PRPF40A WW12 (tandem WW domains, …); assay: ITC; PRPF40A construct (WW12, N-ext-WW12 or its mutant) in the cell, GB1-SF1 or GB1-SF3A1 construct in the syringe (as shown in Supplementary Figures 16 and 21); 25 °C, 20 mM sodium phosphate pH 6.5, 100 mM NaCl; one-site binding model; at least duplicates; affinities apparent

B1: GB1-polyproline peptide P13 (peptide)
chain: GAMSGSPPPPPPPPPPPPPSGSN
notes: common N-terminal residues after the TEV site (TEVsite-GAMSGS-peptide-SGSN); 13 consecutive prolines; common C-terminal residues; pET24 vector with 6xHis, GB1 and TEV site as N-terminal cassette, not cleaved; also called polyproline length 13; source: E. coli BL21(DE3), purified (Ni-NTA, SEC); not shown: GB1, N-terminal, kept
With B1 the Kd [1] was 7.58 µM and 10.6 µM and 7.45 µM and 8.54 µM.

For PPPPPPPPPPPPP, the Kd [2] was 8.54 ± 1.46 µM.

B2: GB1-polyproline peptide P22 (peptide)
chain: GAMSGSPPPPPPPPPPPPPPPPPPPPPPSGSN
notes: common N-terminal residues after the TEV site (TEVsite-GAMSGS-peptide-SGSN); 22 consecutive prolines; common C-terminal residues; pET24 vector with 6xHis, GB1 and TEV site as N-terminal cassette, not cleaved; also called polyproline length 22; source: E. coli BL21(DE3), purified (Ni-NTA, SEC); not shown: GB1, N-terminal, kept
With B2 the Kd [1] was 8.84 µM and 9.73 µM and 9.29 µM.

B3: GB1-SF1 Pro C (residues 539-594) (domain or fragment, UniProt Q15637 539-594, looked up)
chain: GSIPPWQQQQAAAAASPGAPQMQGNPTMVPLPPGVQPPLPPGAPPPPPPPPPGSAG
notes: splicing factor 1 (SF1), residues 539-594 of the proline-rich C-terminal region (holds the WWbs motif 575-590); His6-GB1-TEV site cassette of the pET24 vector, not cleaved; source: E. coli BL21(DE3), purified (Ni-NTA, SEC); not shown: GB1, N-terminal, kept
Work on B3 yielded a Kd [2] of 2.02 ± 0.09 µM.

B4: GB1-SF1 Pro C (residues 539-594) (domain or fragment, UniProt Q15637 539-594, looked up)
chain: B3 chain
notes: SF1 (splicing factor 1) residues 539-594; pET24 vector with 6xHis, GB1 and TEV site as N-terminal cassette, not cleaved; source: E. coli BL21(DE3), purified (Ni-NTA, SEC); not shown: GB1, N-terminal, kept
In the case of B4, the Kd [3] is reported as 2.1 µM and 1.94 µM and 2.02 µM and the “stoichiometry N” value [3] is reported as 0.87 and 0.88.

Work on PPPPPPPPPPPPPPPPPPPPPPPPP [GB1-polyproline peptide P25] yielded a Kd [2] of 10.8 ± 1.8 µM.

B5: GB1-SF3A1 Middle Pro (residues 364-413) (domain or fragment, UniProt Q15459 364-413, looked up)
chain: EGQKVPPPPETPMPPPLPPTPDQVIVRKDYDPKASKPLPPAPAPDEYLVS
notes: SF3A1 (U2 snRNP component), proline-rich region, residues 364-413; His6-GB1-TEV site cassette of the pET24 vector, not cleaved; source: E. coli BL21(DE3), purified (Ni-NTA, SEC); not shown: GB1, N-terminal, kept
In the case of B5, the Kd [4] is reported as 8.86 ± 1.38 µM and the “stoichiometry N” value [4] is reported as 0.56 ± 0.14 sites.

B6: GB1-SF3A1 Middle Pro (residues 364-413) (domain or fragment, UniProt Q15459 364-413, looked up)
chain: B5 chain
notes: SF3A1 residues 364-413, proline-rich region with a PPLP motif; pET24 vector with 6xHis, GB1 and TEV site as N-terminal cassette, not cleaved; also called SF3A1 region (364-413); source: E. coli BL21(DE3), purified (Ni-NTA, SEC); not shown: GB1, N-terminal, kept
In the case of B6, the Kd [3] is reported as 8.1 µM and 9.6 µM and 8.86 µM and the “stoichiometry N” value [3] is reported as 0.7 and 0.42 and 0.56.

B7: GB1-SF3A1 C-ter Pro (residues 552-683) (domain or fragment, UniProt Q15459 552-683, looked up)
chain: EIPQQPPPPSSATNIPSSAPPITSVPRPPTMPPPVRTTVVSAVPVMPRPPMASVVRLPPGSVIAPMPPIIHAPRINVVPMPPSAPPIMAPRPPPMIVPTAFVPAPPVAPVPAPAPMPPVHPPPPMEDEPTSK
notes: His6-GB1-TEV site cassette of the pET24 vector, not cleaved; source: E. coli BL21(DE3), purified (Ni-NTA, SEC); not shown: GB1, N-terminal, kept
In the case of B7, the “stoichiometry N” value [4] is reported as 0.27 ± 0.07 sites.

B8: GB1-SF3A1 C-ter Pro (residues 552-683) (domain or fragment, UniProt Q15459 552-683, looked up)
chain: B7 chain
notes: pET24 vector with 6xHis, GB1 and TEV site as N-terminal cassette, not cleaved; source: E. coli BL21(DE3), purified (Ni-NTA, SEC); not shown: GB1, N-terminal, kept
In the case of B8, the “stoichiometry N” value [3] is reported as 0.25 and 0.28 and 0.27.

B9: GB1-polyproline peptide P19 (peptide)
chain: GAMSGSPPPPPPPPPPPPPPPPPPPSGSN
notes: common N-terminal residues after the TEV site (TEVsite-GAMSGS-peptide-SGSN); 19 consecutive prolines; common C-terminal residues; pET24 vector with 6xHis, GB1 and TEV site as N-terminal cassette, not cleaved; also called polyproline length 19; source: E. coli BL21(DE3), purified (Ni-NTA, SEC); not shown: GB1, N-terminal, kept
B9 was tested, and the Kd [1] was 7.02 µM and 6.5 µM and 6.76 µM.

B10: GB1-polyproline peptide P8 (peptide)
chain: GAMSGSPPPPPPPPSGSN
notes: common N-terminal residues after the TEV site (TEVsite-GAMSGS-peptide-SGSN); 8 consecutive prolines; common C-terminal residues; pET24 vector with 6xHis, GB1 and TEV site as N-terminal cassette, not cleaved; also called polyproline length 8; source: E. coli BL21(DE3), purified (Ni-NTA, SEC); not shown: GB1, N-terminal, kept
B10 showed a Kd [1] of over 50 µM.

B11: GB1-SF1 Pro BC (residues 468-594) (domain or fragment, UniProt Q15637 468-594, looked up)
chain: GMMPPPPMGMMPPPPPPPSGQPPPPPSGPLPPWQQQQQQPPPPPPPSSSMASSTPLPWQQNTTTTTTSAGTGSIPPWQQQQAAAAASPGAPQMQGNPTMVPLPPGVQPPLPPGAPPPPPPPPPGSAG
notes: splicing factor 1 (SF1), residues 468-594; His6-GB1-TEV site cassette of the pET24 vector, not cleaved; also called SF1 BC; source: E. coli BL21(DE3), purified (Ni-NTA, SEC); not shown: GB1, N-terminal, kept
B11 was tested, and the “stoichiometry N” value [4] was 0.53 ± 0.05 sites.

B12: GB1-SF1 Pro BC (residues 468-594) (domain or fragment, UniProt Q15637 468-594, looked up)
chain: B11 chain
notes: SF1 (splicing factor 1) residues 468-594; pET24 vector with 6xHis, GB1 and TEV site as N-terminal cassette, not cleaved; source: E. coli BL21(DE3), purified (Ni-NTA, SEC); not shown: GB1, N-terminal, kept
For B12, the “stoichiometry N” value [3] was 0.5 and 0.6 and 0.53.

In the case of PPPPPPPPPPPPPPPPPPPPPPPPPPPPP [GB1-polyproline peptide P29], the Kd [2] is reported as 9.15 ± 1.85 µM.

PPPPPPPPPPPPPPPPPPPPPP gave a Kd [2] of 9.29 ± 0.88 µM.

B13: GB1-SF1 Pro D (residues 594-639) (domain or fragment, UniProt Q15637 594-639, looked up)
chain: GMMYAPPPPPPPPMDPSNFVTMMGMGVAGMPPFGMPPAPPPPPPQN
notes: splicing factor 1 (SF1), residues 594-639 of the proline-rich C-terminal region; His6-GB1-TEV site cassette of the pET24 vector, not cleaved; source: E. coli BL21(DE3), purified (Ni-NTA, SEC); not shown: GB1, N-terminal, kept
With B13 the Kd [2] was 10.1 ± 4.2 µM.
